From patent publication US20140363522A1
Each block holds one substance with its values, some of them ahead of it.

Key:
Assay in all cases: cell-based or functional assay
[1] = target: interleukin (IL)-6 (human) (UniProt P05231)
[2] = target: interleukin (IL)-8 (human) (UniProt P10145)
[3] = target: monocyte chemoattractant protein-1 (human) (UniProt P13500)
[4] = target: tissue inhibitor of metalloproteinases-1 (human) (UniProt P01033)
Chain of tissue inhibitor of metalloproteinases-1 (human) (P01033 24-207 limits assumed): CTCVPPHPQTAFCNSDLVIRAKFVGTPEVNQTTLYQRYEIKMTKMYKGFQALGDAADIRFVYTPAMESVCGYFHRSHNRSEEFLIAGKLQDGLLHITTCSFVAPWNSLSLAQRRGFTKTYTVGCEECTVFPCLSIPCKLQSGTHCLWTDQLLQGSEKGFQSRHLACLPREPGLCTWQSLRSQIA

Chain of interleukin (IL)-6 (human) (P05231 30-212 limits assumed): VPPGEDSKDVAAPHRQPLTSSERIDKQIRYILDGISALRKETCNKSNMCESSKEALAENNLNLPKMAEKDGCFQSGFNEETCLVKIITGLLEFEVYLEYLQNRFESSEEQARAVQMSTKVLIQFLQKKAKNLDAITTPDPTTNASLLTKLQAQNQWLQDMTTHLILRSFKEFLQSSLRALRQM
Chain of interleukin (IL)-8 (human) (P10145 28-99 limits assumed): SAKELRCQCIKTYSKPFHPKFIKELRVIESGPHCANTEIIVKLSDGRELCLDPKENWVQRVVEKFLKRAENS
Chain of monocyte chemoattractant protein-1 (human) (P13500 24-99 limits assumed): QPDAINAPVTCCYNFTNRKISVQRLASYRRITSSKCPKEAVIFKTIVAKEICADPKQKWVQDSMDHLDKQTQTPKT

decrease in in vitro ovarian cancer cell homing toward adipocytes (Matrigel plug, fluorescence) [1]: > 50%
Substance: IL-6 inhibitory antibody (R&D Systems AB206NA)

decrease in in vitro ovarian cancer cell homing toward adipocytes (Matrigel plug, fluorescence) [2]: > 50%
Substance: IL-8 inhibitory antibody (R&D Systems AB208NA)

decrease in in vitro ovarian cancer cell homing toward adipocytes (Matrigel plug, fluorescence) [3]: > 50%
Substance: MCP-1 inhibitory antibody (R&D Systems AB279NA)

decrease in in vitro ovarian cancer cell homing toward adipocytes (Matrigel plug, fluorescence) [4]: > 50%
Substance: TIMP-1-specific inhibitory antibody (R&D Systems AF970)
